Measured values as given in patent US9205132B2, “Method of lowering mortality” (CORTHERA, INC., priority 2008, dated 2015).
“Also recorded” adds a separate entry of the source. Marks after values point to notes of the source that are not given here.

Legend:
[1] = tested on: patients with acute heart failure (AHF); assay: Safety endpoints (adverse events, blood pressure, renal impairment, clinical laboratory), Pre-RELAX-AHF trial; type: in vivo, human; conditions: for change from baseline in mean hematocrit at 48 hours: described as transient decrease; for Total number of SAEs: to Day 30
Protocol: Study Procedures. The study was approved by the relevant ethics committees, institutional review hoards and regulatory authorities, and conducted under the International Conference on Harmonization Good Clinical Practice guidelines. All patients provided informed written consent prior to participation. […] The placebo used for the study was the same solution as the diluent used to prepare the 100 μg/kg/day dose. The randomization ratio was 3:2:2:2:2, respectively, Relaxin (Corthera, San Mateo, Calif.) was manufactured using recombinant techniques and was identical to the naturally-occurring peptide hormone. By protocol, the study drug infusion was to be terminated if the patient's SBP was reduced to <100 mmHg or by >40 mmHg compared to baseline in two successive measurements, 15 minutes apart. Investigators were not prohibited from utilizing any standard medication, thought necessary to treat patients enrolled in the study, including additional vasodilators, following a 4-hour washout period during which time IV vasodilators, IV pure inotropes and meals were withheld, hemodynamic, renal, and clinical responses to 48 hours of study drug infusion were assessed.
Study Endpoints. […] 4.) Length of initial hospital stay.

[2] = tested on: patients with systemic sclerosis; assay: Clinical trial of relaxin in patients with systemic sclerosis, continuous SQ infusion for six months; type: in vivo, human
Text: Overview. Clinical trials with relaxin have also been conducted on systemic sclerosis patients, 257 human subjects who suffer from systemic sclerosis, a serious fibrotic disease, have been treated with relaxin by continuous and subcutaneous (SQ) infusion for six months. […] These findings support the hypothesis that relaxin administration was associated with balanced systemic and renal vasodilation.

In the case of Relaxin, the “Protocol-specified study drug discontinuation due to blood pressure reduction” value ([1]; 100 mcg/kg/d IV 48 h) is reported as 7.9%, the “Renal impairment: Patients with ≧0.3 mg/dL increase in creatinine at Day 5” value ([1]; 100 mcg/kg/d IV 48 h) is reported as 9 (26.5%) n (%) and the “Renal impairment: Patients with ≧0.3 mg/dL increase in creatinine at Day 5 and Day 14” value ([1]; 100 mcg/kg/d IV 48 h) is reported as 4 (10.8%) n (%). For the same substance, the “Renal impairment: Patients with ≧25% increase in creatinine at Day 5” value ([1]; 100 mcg/kg/d IV 48 h) was 11 (29.7%) * n (%), the “SAE to Day 30: Acute respiratory failure, n (%)” value ([1]; 100 mcg/kg/d IV 48 h) was 1 (2.6%) n (%) and the “SAE to Day 30: Bronchitis, n (%)” value ([1]; 100 mcg/kg/d IV 48 h) was 0 n (%). The “SAE to Day 30: Cardiac failure, n (%)” value ([1]; 100 mcg/kg/d IV 48 h) was 0 n (%), the “SAE to Day 30: Cerebrovascular accident, n (%)” value ([1]; 100 mcg/kg/d IV 48 h) was 0 n (%) and the “SAE to Day 30: Hypotension, n (%)” value ([1]; 100 mcg/kg/d IV 48 h) was 0 n (%). For the same substance, the “SAE to Day 30: Noncardiac chest pain, n (%)” value ([1]; 100 mcg/kg/d IV 48 h) was 0 n (%), the “SAE to Day 30: Pneumonia, n (%)” value ([1]; 100 mcg/kg/d IV 48 h) was 0 n (%) and the “SAE to Day 30: Renal failure, n (%)” value ([1]; 100 mcg/kg/d IV 48 h) was 0 n (%). The “SAE to Day 30: Urinary retention, n (%)” value ([1]; 100 mcg/kg/d IV 48 h) was 2 (5.3%) n (%), the “SAE to Day 30: Urinary tract infection, n (%)” value ([1]; 100 mcg/kg/d IV 48 h) was 0 n (%) and the “SAE to Day 30: Ventricular fibrillation, n (%)” value ([1]; 100 mcg/kg/d IV 48 h) was 0 n (%). The “mean change in creatinine from baseline at Day 14” value ([1]; 100 mcg/kg/d IV 48 h) was 0.08 ± 0.39 mg/dL, the “mean decrease in SBP compared to placebo during infusion” value ([1]; 100 mcg/kg/d IV 48 h) was 3-4 mmHg and the “proportion of patients at Day 14 with an increase in creatinine of 0.3 mg/dL or more” value ([1]; 100 mcg/kg/d IV 48 h) was 24.2%. For the same substance, the “change from baseline in mean hematocrit at 48 hours” value ([1]; 100 mcg/kg/d IV 48 h) was 0.25%, the “Patients with any AE from Day 15 to Day 30, n (%)” value ([1]; 250 mcg/kg/d IV 48 h) was 3 (6.1%) n (%) and the “Patients with any SAEs to Day 30, n (%)” value ([1]; 250 mcg/kg/d IV 48 h) was 8 (16.3%) n (%). The “Patients with any adverse events to Day 30, n (%)” value ([1]; 250 mcg/kg/d IV 48 h) was 25 (51.0%) n (%), the “Protocol-specified study drug discontinuation due to blood pressure reduction” value ([1]; 250 mcg/kg/d IV 48 h) was 16.3% and the “Renal impairment: Patients with ≧0.3 mg/dL increase in creatinine at Day 5” value ([1]; 250 mcg/kg/d IV 48 h) was 10 (22.7%) n (%). The “Renal impairment: Patients with ≧0.3 mg/dL increase in creatinine at Day 5 and Day 14” value ([1]; 250 mcg/kg/d IV 48 h) was 7 (15.2%) + n (%), the “Renal impairment: Patients with ≧25% increase in creatinine at Day 5” value ([1]; 250 mcg/kg/d IV 48 h) was 12 (25.5%) n (%) and the “SAE to Day 30: Acute respiratory failure, n (%)” value ([1]; 250 mcg/kg/d IV 48 h) was 0 n (%). The “SAE to Day 30: Bronchitis, n (%)” value ([1]; 250 mcg/kg/d IV 48 h) was 1 (2.0%) n (%), the “SAE to Day 30: Cardiac failure, n (%)” value ([1]; 250 mcg/kg/d IV 48 h) was 2 (6.1%) n (%) and the “SAE to Day 30: Cerebrovascular accident, n (%)” value ([1]; 250 mcg/kg/d IV 48 h) was 0 n (%). The “SAE to Day 30: Hypotension, n (%)” value ([1]; 250 mcg/kg/d IV 48 h) was 2 (4.1%) n (%), the “SAE to Day 30: Noncardiac chest pain, n (%)” value ([1]; 250 mcg/kg/d IV 48 h) was 1 (2.0%) n (%) and the “SAE to Day 30: Pneumonia, n (%)” value ([1]; 250 mcg/kg/d IV 48 h) was 0 n (%). For the same substance, the “SAE to Day 30: Renal failure, n (%)” value ([1]; 250 mcg/kg/d IV 48 h) was 0 n (%), the “SAE to Day 30: Urinary retention, n (%)” value ([1]; 250 mcg/kg/d IV 48 h) was 0 n (%) and the “SAE to Day 30: Urinary tract infection, n (%)” value ([1]; 250 mcg/kg/d IV 48 h) was 1 (2.0%) n (%). The “SAE to Day 30: Ventricular fibrillation, n (%)” value ([1]; 250 mcg/kg/d IV 48 h) was 0 n (%), the “mean change in creatinine from baseline at Day 14” value ([1]; 250 mcg/kg/d IV 48 h) was 0.10 ± 0.39 mg/dL and the “proportion of patients at Day 14 with an increase in creatinine of 0.3 mg/dL or more” value ([1]; 250 mcg/kg/d IV 48 h) was 37.2%. The “change from baseline in mean hematocrit at 48 hours” value ([1]; 250 mcg/kg/d IV 48 h) was 0.64%, the renal toxicity ([1]; AHF and/or acute vascular failure patients) was “low to no renal toxicity” and the safety and tolerability ([1]; AHF patients, all doses) was “no safety or tolerability issues”. For the same substance, the “hypotension in patients with baseline SBP below the median” value ([1]; FIGS. 22A and 22B) was “does not cause deleterious hypotension”, the “trough SBP” value ([1]; all cases with blood pressure reduction) was ≥ 80 mmHg and the “mean change in pulse from baseline through day 14” value ([1]; all relaxin groups vs placebo, FIG. 20) was “not chronotropic”. The “average decrease in systolic blood pressure over all time points during infusion vs placebo” value ([1]; all relaxin groups, FIG. 21) was “did not differ”, the “patients who received intravenous fluids for hypotension” value ([1]; four relaxin-treated groups together (5 patients)) was 3.0% and the “patients with SBP reductions in whom SBP stabilized or rose with no therapy after discontinuation of study drug” value ([1]; relaxin-treated patients, all doses) was 18 of 23. The “Total number of SAEs” value ([1]; 10 mcg/kg/d IV 48 h) was 8, the “Total number of SAEs” value ([1]; 30 mcg/kg/d IV 48 h) was 12 and the “Total number of SAEs” value ([1]; 100 mcg/kg/d IV 48 h) was 3. The “Total number of SAEs” value ([1]; 250 mcg/kg/d IV 48 h) was 11, the blood pressure [2] was “stable decreases in blood pressure” and the hypotensive events [2] was “did not experience any serious hypotensive events; also recorded: None of the patients developed hypotension during dosing”. For the same substance, the “predicted creatinine clearance (renal function)” value [2] was “statistically significant increase in predicted creatinine clearance; also recorded: stable improvement in renal function”.
